Data on 48 variants can be found in PMC12212125, “Constitutively active Arabidopsis cryptochrome two alleles identified using yeast selection and deep mutational scanning” (The Journal of Biological Chemistry, 2025).

First the molecules themselves.
B1: Arabidopsis thaliana cryptochrome 2 (CRY2, UniProt Q96524), residues 1-535 fused after the Gal4 DNA-binding domain (Gal4BD-CRY2(535)); mutagenized window 321-412, Q96524 (parent)
chain: MKMDKKTIVWFRRDLRIEDNPALAAAAHEGSVFPVFIWCPEEEGQFYPGRASRWWMKQSLAHLSQSLKALGSDLTLIKTHNTISAILDCIRVTGATKVVFNHLYDPVSLVRDHTVKEKLVERGISVQSYNGDLLYEPWEIYCEKGKPFTSFNSYWKKCLDMSIESVMLPPPWRLMPITAAAEAIWACSIEELGLENEAEKPSNALLTRAWSPGWSNADKLLNEFIEKQLIDYAKNSKKVVGNSTSLLSPYLHFGEISVRHVFQCARMKQIIWARDKNSEGEESADLFLRGIGLREYSRYICFNFPFTHEQSLLSHLRFFPWDADVDKFKAWRQGRTGYPLVDAGMRELWATGWMHNRIRVIVSSFAVKFLLLPWKWGMKYFWDTLLDADLECDILGWQYISGSIPDGHELDRLDNPALQGAKYDPEGEYIRQWLPELARLPTEWIHHPWDAPLTVLKASGVELGTNYAKPIVDIDTARELLAKAISRTREAQIMIGAAPDEIVADSFEALGANTIKEPGLCPSVSSNDQQVPSAV

In one assay the parent is B1. The assay can be described thus: yeast two-hybrid growth selection (MaV203; Gal4BD-CRY2(1-535) library x Gal4AD-CIB1; URA3 reporter on SC -Trp/-Leu/-Ura) in the dark, deep sequencing before and after selection, Enrich2 scoring; three independent screens (one at 48 h, two …). The conditions noted are these: with CIB1 (CRYPTOCHROME-INTERACTING BASIC-HELIX-LOOP-HELIX 1), dark (no blue light), screens 1, 3 and 4, Svar > 0 = enriched under dark selection for CRY2-CIB1 two-hybrid growth (URA3 reporter), < 0 = depleted, relative to wild type (whose scores are 0). 'The Enrich2 software calculates, parent: 0, not an affinity, scale: Enrich2 score, numbering: uniprot, sequence starts at 1.
Regarding K327Q, the enrichment is 0.397.

As to Y338D, the enrichment was -1.31.

With Y338S, the enrichment is -0.758.

Regarding Y338C, the enrichment was -1.57.

As for Y338F, the enrichment is -0.84.

As to Y338H, the enrichment is -0.584.

In the case of Y338N, the enrichment was -1.68.

In the case of T336N, the enrichment was -0.274.

For T336I, the enrichment is -1.58.

Turning to T336P, the enrichment was -0.907.

Take T336S: the enrichment was 0.494.

For T336A, the enrichment is -1.84.

In the case of D324N, the enrichment is -0.413.

Take D324G: the enrichment is -0.17.

For D324E, the enrichment is 0.371.

In the case of D324Y, the enrichment is 0.863.

Regarding D324V, the enrichment is 2.44.

For the variant D324A, the enrichment was 0.0228.

Take K329E: the enrichment was -0.264.

As to K329N, the enrichment is 0.546.

With K329R, the enrichment was 0.366.

Turning to K329M, the enrichment is 0.675.

For K329T, the enrichment was 0.41.

Consider G334V, for which the enrichment is -0.578.

For G334S, the enrichment was -0.925.

For the variant G334C, the enrichment is 0.0705.

As for G334A, the enrichment is -1.45.

With G337C, the enrichment is -1.19.

For G337S, the enrichment is -0.736.

Regarding G337R, the enrichment is -0.665.

With G337V, the enrichment is -1.13.

As to W331R, the enrichment was -1.72.

Take W331G: the enrichment is -1.69.

With W331C, the enrichment is -0.871.

For W331L, the enrichment was 1.

For R335G, the enrichment is -1.19.

For the variant R335S, the enrichment is -0.537.

For the variant R335T, the enrichment is 1.74.

Turning to R335K, the enrichment was 0.204.

For F328L, the enrichment is -0.872.

With F328C, the enrichment is -1.53.

On to F328Y, for which the enrichment is -0.296.

For the variant F328P, the enrichment is 0.453.

As to F328S, the enrichment was -1.95.

On to F328V, for which the enrichment is -2.43.

As for F328I, the enrichment is -1.51.

Variants of B1 are the subject of another assay. In words: yeast two-hybrid, quantitative GalUAS-lacZ (beta-galactosidase) reporter assay. As to conditions: with itself; dark; strain AH109; parent: 25; read off a plot. (In general: Reporter assays use an easily measured gene product as a stand-in for the process of interest.)
With MKMDKKTIVWFRRDLRIEDNPALAAAAHEGSVFPVFIWCPEEEGQFYPGRASRWWMKQSLAHLSQSLKALGSDLTLIKTHNTISAILDCIRVTGATKVVFNHLYDPVSLVRDHTVKEKLVERGISVQSYNGDLLYEPWEIYCEKGKPFTSFNSYWKKCLDMSIESVMLPPPWRLMPITAAAEAIWACSIEELGLENEAEKPSNALLTRAWSPGWSNADKLLNEFIEKQLIDYAKNSKKVVGNSTSLLSPYLHFGEISVRHVFQCARMKQIIWARDKNSEGEESADLFLRGIGLREYSRYICFNFPFTHEQSLLSHLRFFPWDADVDKFKAWRQGRTGYPLVDAGMRELWATGWMHNRIRVIVSSFAVKFLLLPWKWGMKYFWDTLLDADLECAILGWQYISGSIPDGHELDRLDNPALQGAKYDPEGEYIRQWLPELARLPTEWIHHPWDAPLTVLKASGVELGTNYAKPIVDIDTARELLAKAISRTREAQIMIGAAPDEIVADSFEALGANTIKEPGLCPSVSSNDQQVPSAV [chain 1 D393A], the response turned out to be 160 Miller units.

For MKMDKKTIVWFRRDLRIEDNPALAAAAHEGSVFPVFIWCPEEEGQFYPGRASRWWMKQSLAHLSQSLKALGSDLTLIKTHNTISAILDCIRVTGATKVVFNHLYDPVSLVRDHTVKEKLVERGISVQSYNGDLLYEPWEIYCEKGKPFTSFNSYWKKCLDMSIESVMLPPPWRLMPITAAAEAIWACSIEELGLENEAEKPSNALLTRAWSPGWSNADKLLNEFIEKQLIDYAKNSKKVVGNSTSLLSPYLHFGEISVRHVFQCARMKQIIWARDKNSEGEESADLFLRGIGLREYSRYICFNFPFTHEQSLLSHLRFFPWDADVDKFKAWRQGRTGYPLVDAGMRELWATGWMHNRIRVIVSSFAVKFLLLPWKWGMKYFWDTLLDADLECSILGWQYISGSIPDGHELDRLDNPALQGAKYDPEGEYIRQWLPELARLPTEWIHHPWDAPLTVLKASGVELGTNYAKPIVDIDTARELLAKAISRTREAQIMIGAAPDEIVADSFEALGANTIKEPGLCPSVSSNDQQVPSAV [chain 1 D393S], the response came out at 170 Miller units.

The assay is the same for the next values; noted with them: with itself; light; strain AH109; parent: 220; read off a plot.
Regarding MKMDKKTIVWFRRDLRIEDNPALAAAAHEGSVFPVFIWCPEEEGQFYPGRASRWWMKQSLAHLSQSLKALGSDLTLIKTHNTISAILDCIRVTGATKVVFNHLYDPVSLVRDHTVKEKLVERGISVQSYNGDLLYEPWEIYCEKGKPFTSFNSYWKKCLDMSIESVMLPPPWRLMPITAAAEAIWACSIEELGLENEAEKPSNALLTRAWSPGWSNADKLLNEFIEKQLIDYAKNSKKVVGNSTSLLSPYLHFGEISVRHVFQCARMKQIIWARDKNSEGEESADLFLRGIGLREYSRYICFNFPFTHEQSLLSHLRFFPWDADVDKFKAWRQGRTGYPLVDAGMRELWATGWMHNRIRVIVSSFAVKFLLLPWKWGMKYFWDTLLDADLECAILGWQYISGSIPDGHELDRLDNPALQGAKYDPEGEYIRQWLPELARLPTEWIHHPWDAPLTVLKASGVELGTNYAKPIVDIDTARELLAKAISRTREAQIMIGAAPDEIVADSFEALGANTIKEPGLCPSVSSNDQQVPSAV [chain 1 D393A], the response was determined as 180 Miller units.

On to MKMDKKTIVWFRRDLRIEDNPALAAAAHEGSVFPVFIWCPEEEGQFYPGRASRWWMKQSLAHLSQSLKALGSDLTLIKTHNTISAILDCIRVTGATKVVFNHLYDPVSLVRDHTVKEKLVERGISVQSYNGDLLYEPWEIYCEKGKPFTSFNSYWKKCLDMSIESVMLPPPWRLMPITAAAEAIWACSIEELGLENEAEKPSNALLTRAWSPGWSNADKLLNEFIEKQLIDYAKNSKKVVGNSTSLLSPYLHFGEISVRHVFQCARMKQIIWARDKNSEGEESADLFLRGIGLREYSRYICFNFPFTHEQSLLSHLRFFPWDADVDKFKAWRQGRTGYPLVDAGMRELWATGWMHNRIRVIVSSFAVKFLLLPWKWGMKYFWDTLLDADLECSILGWQYISGSIPDGHELDRLDNPALQGAKYDPEGEYIRQWLPELARLPTEWIHHPWDAPLTVLKASGVELGTNYAKPIVDIDTARELLAKAISRTREAQIMIGAAPDEIVADSFEALGANTIKEPGLCPSVSSNDQQVPSAV [chain 1 D393S], for which the response is 160 Miller units.
